From patent US20180009877A1 (ACADEMIA SINICA, published 2018) come the findings set out here.

In general, Kd refers to the constant that tells how readily two partners part at equilibrium. Low values mean higher affinity, high ones lower affinity. A word on the koff: it is the first-order rate constant of dissociation. Read a low koff as slow dissociation. One may read the kon as a measure of how fast the partners come together. Broadly, the EC50 is the concentration needed to bring the measured effect to its halfway point. Lower therefore signals greater potency.

B1: M64 (antibody)
chain: MAELDIQMNQSHKFMSTSVGDRVSITCKASQDVSTAVAWYQQKPGQSPKLLIYWASTRHTGVPGRFTGSGSGADYTLTISSVQAEDLALYYCQQHYSTPYTFGGGTKLEIKSSGGGGSGGGGGGSSRSSLEVQLQQSGAELVKPGASVKLSCTASGFNIKNTYMHWVKQRPEQGLEWIGRIDPANGNTKYDPKLQGKATITADTSSNTAYLHLSSLTSEDTAVYYCVPYYRGAMDYWGQGTSVTVSSESQSFPNVTSAAAGAPVPYPDPLEPRAA
B2: M61 (antibody)
chain: MAELDIKITQSPASLSASVGETVTITCRASENIYSYLAWYQQKQGKSPQLLVYNAKTLAEGVPSRFSGSGSGTQFSLKINSLQPEDFGSYYCQHHYGTPYTFGGGTKLELKSSGGGGSGGGGGGSSRSSLEVQLQQSGAELVKPGASVKMSCKAFGYTFTTYPIEWMKQNHGKSLEWIGNFHPYNDDTKYNEKFKGKAKLTVEKSSSTVYLELSRLTSDDSAVYYCARRNDGYYGAMDYWGQGTSVTVSSAKTTAPSVTSAAAGAPVPYPDPLEPRAA
B3: M63 (antibody)
chain: MAELDAVVTQESALTTSPGETVTLTCRSSTGTVTTSNYANWVQEKPDHLFTGLIGGTKNRAPGVPARFSGSLIGDKAALTITGAQTEDEAIYFCALWYSNHWVFGGGTKLTVLGSSGGGGSGGGGGGSSRSSLEVQLQQSGPELVRPGDSVKISCKASGYTFSDYAVHWVKRSHGKSLEWIGVISIYYDNINYNQNFKGKATMTVDKSSSTAYLELARLTSEDSAIYYCARRGFDYWGPGTTLTVSSAKTTAPSVTSAAA
B4: M32 (antibody)
chain: MAELGIELTQSQKFMSTSVGDRVSITCKASQNVGTAVAWYQQKPGQSPKLLIYSASNRYTGVPDRFTGSGSGTDFTLTISNMQSEDLADYFCQQYSSYPLAFGGGTKLEIKSSGGGGSGGGGGGSSRSSLEVQLVESGAELVRPGALVKLSCKASGFNIKDYFMYWVKQRPEQGLEWVGWIDPENGNTIYDPKFQGKASITADTSSNTAYLQLSSLTSEDTAVYYCTRGYYGSRVLAMDYWGQGTSVTVSSAKTTPPSVTSAAA
notes: also called antibody M32
B5: H32 (antibody)
chain: DIQMTQSPSSLSASVGDRVTITCKASQNVGTAVAWYQQKPGKAPKLLIYSASNRYTGVPSRFSGSGSGTDFTLTISSLQPEDFATYYCQQYSSYPLAFGQGTKVEIKRGGGGSIEGRSGGGGSEVQLVESGGGLVQPGGSLRLSCKASGFNIKDYFMYWVRQAPGKGLEWVGWIDPENGNTIYDPKFQGRFTISADTSKNTAYLQMNSLRAEDTAVYYCTRGYYGSRVLAMDYWGQGTLVTVSSASAAA
notes: also called antibody H32
B6: M41 (antibody)
chain: MAELDIQMTQTTSSLSASLGDRVTISCRTSQDISNYLNWYQQKPNGTIKLLIYYTSGLYSGVPSRFSGSGSGADYSLTISNVEQEDIATYFCQQVNTLPYTFGGGTKLELKSSGGGGSGGGGGGSSRSSFEVQLQQSGAELVKPGASVKMSCKAFGYTFTTYPIEWMKQNHGKSLEWIGNFHPYNDYTNYNEKFKGKAKLTVEKSSTTVYLELSRLTSDDSAVYYCARRHDGYYGAMDYWGQGTSVTVSSAKTTAPSVTSAAAGAPVPYPDPLEPRAA
notes: also called antibody M41
B7: M62 (antibody)
chain: MAELDIQMIQSQKFMSTSVGDRVSVTCKASQNVGTNVAWYQQKPGQSPKALIHSASYRYSGVPDRFTGSGSGTDFTLTISNVQSEDLAEYFCQQYNSYPLTFGAGTKLEIKSSGGGGSGGGGGGSSRSSLEVQLQQSGTELARPGASVKLSCKASGYTFIDYYITWVKQRTGQGLEWIGEIYPGGGNPYYNDNFKGKASLTADKSSNTVYMQLSSLTSEDSAVYFCARSYKYDVSVYWGQGTLVTVSAAKTTPPSVTSAAAGAPVPYPDPLEPRAA
notes: also called antibody M62

The target of the first assay is T1, polypeptide HER2/ECD (human, UniProt P04626 23-646). The assay can be described thus: SPR (BIAcore), HER2/ECD immobilized, IgG in flow. (In general: In SPR one partner is held on a chip, and binding of the other changes the refractive index at the surface.)
Description: BIAcore T200 (GE Healthcare) instrument was used to determine the binding affinities and kinetic parameters for interactions between antibody and antigen HER2/ECD. HER2/ECD in 10 mM acetate buffer (pH 5.0) was immobilized on a CM5 sensor chip to a response unit (RU) of 1000 with an amine coupling kit. Association (kₒₙ) and dissociation (koff) constants of the interactions between IgGs and HER2/ECD were measured in PBST running buffer (0.05% Tween 20) with a flow rate of 30 μL/min. […] Binding kinetics was determined by global fitting to 1:1 binding model using the Biaevaluation software (GE Healthcare).
B1 displayed a Kd of 0.195 nM, a koff of 0.000337 s⁻¹ and a kon of 1.74e+06 M⁻¹ s⁻¹.
For B2 the same measures were 0.591 nM, 0.0024 s⁻¹ and 4.06e+06 M⁻¹ s⁻¹.
B3 displayed a dissociation rate constant (koff) of 7.34e-05 s⁻¹.
As to B4, binding was characterised by a dissociation constant (Kd) of 0.243 nM, the koff was determined as 7.15e-05 s⁻¹ and the kon turned out to be 294000 M⁻¹ s⁻¹.
Taken in the same sequence, the figures for B5 were 0.242 nM, 3.85e-05 s⁻¹ and 159000 M⁻¹ s⁻¹.
Taken in the same sequence, the figures for B6 were 0.0519 nM, 3.48e-05 s⁻¹ and 671000 M⁻¹ s⁻¹.
For B7 the same measures were 0.0228 nM, 1.8e-05 s⁻¹ and 788000 M⁻¹ s⁻¹.

Another assay concerns the target T1, polypeptide HER2/ECD. The assay can be described thus: ELISA, IgG on immobilized HER2/ECD. On the technique in general: In an ELISA, binding on a coated surface is turned into a signal by an enzyme label.
Description: The EC₅₀ of antibody was determined by titrating the antibody on immobilized HER2/ECD with ELISA. Briefly, NUNC 96-well Maxisorb immunoplates were coated with HER2/ECD peptides (0.2 μg per well) in PBS buffer (pH 7.4) via overnight incubation at 4° C., the plates were then blocked with 5% skim milk in PBST [0.05% (v/v) Tween 20] for 1 h. In the meantime, twofold serial dilutions of the antibody in PBST with 5% milk were performed and 11 different concentrations of the antibody were generated. After blocking, 100 μL diluted antibody samples were added to each well, and incubated for 1 h under gentle shaking. The plate was washed 6 times with 300 μL PBST and then added with 100 μL 1:2000-diluted horse-radish peroxidase/anti-human IgG antibody conjugate in PBST with 5% milk for 1 h incubation. The plates were washed 6 times with PBST buffer and twice with PBS, developed for 3 min with 3,3′,5,5′-tetramethyl-benzidine peroxidase substrate (Kirkegaard & Perry Laboratories), quenched with 1.0 M HCl and read spectrophotometrically at 450 nm.
In turn, B1 returned an EC50 of 3.1 ng/mL.
The same measure, in the same setting: under B2 stands 3.5 ng/mL.
On the same count and under the same terms, under B3 stands 2.4 ng/mL; under B4, 3.1 ng/mL; under B5, 3.2 ng/mL.
B6: a half-maximal response (EC50) required 3.4 ng/mL.
On to B7, for which the EC50 came out at 2 ng/mL.
